{
  "source": "patent US20180022822A1",
  "about": "“NOVEL ANTI-FIBROBLAST ACTIVATION PROTEIN (FAP) BINDING AGENTS AND USES THEREOF” (Mabimmune Diagnostics AG, priority 2016, published 2018)",
  "molecules": {"B1": {"name": "NI-206.82C2: human-derived recombinant anti-FAP antibody; VH SEQ ID NO: 2 or 4 (PIMC), VL SEQ ID NO: 6 (antibody, V domains shown)", "VH": "QVQLQQSGPGLVKPSQTLSLTCAISGDSVSSNSVTWNWIRQSPSRGLEWLGRTYYRSKWYNDYAVSVKGRITINPDTSKNQFYLQLKSVTPEDAAVYYCARDSSILYGDYWGQGTLVTVSS", "VL": "QAVLTQPSSLSASPGASASLTCTLPSGINVGTYRIFWFQQKPGSPPQYLLSYKSDSDNHQGSGVPSRFSGSKDASANAGILLISGLQSEDEADYYCMIWHSSAWVFGGGTKLTVL"}},
  "key": {"[1]": {"target": "T1, active recombinant mouse FAP (Mus musculus, UniProt P97321)", "T1 construct": "expressed in a HEK293 cell line without the transmembrane and intracellular domains and an N-terminal 6× histidine tag; made in house; host or cells: HEK293", "T1 sequence (P97321 26-761 limits assumed)": "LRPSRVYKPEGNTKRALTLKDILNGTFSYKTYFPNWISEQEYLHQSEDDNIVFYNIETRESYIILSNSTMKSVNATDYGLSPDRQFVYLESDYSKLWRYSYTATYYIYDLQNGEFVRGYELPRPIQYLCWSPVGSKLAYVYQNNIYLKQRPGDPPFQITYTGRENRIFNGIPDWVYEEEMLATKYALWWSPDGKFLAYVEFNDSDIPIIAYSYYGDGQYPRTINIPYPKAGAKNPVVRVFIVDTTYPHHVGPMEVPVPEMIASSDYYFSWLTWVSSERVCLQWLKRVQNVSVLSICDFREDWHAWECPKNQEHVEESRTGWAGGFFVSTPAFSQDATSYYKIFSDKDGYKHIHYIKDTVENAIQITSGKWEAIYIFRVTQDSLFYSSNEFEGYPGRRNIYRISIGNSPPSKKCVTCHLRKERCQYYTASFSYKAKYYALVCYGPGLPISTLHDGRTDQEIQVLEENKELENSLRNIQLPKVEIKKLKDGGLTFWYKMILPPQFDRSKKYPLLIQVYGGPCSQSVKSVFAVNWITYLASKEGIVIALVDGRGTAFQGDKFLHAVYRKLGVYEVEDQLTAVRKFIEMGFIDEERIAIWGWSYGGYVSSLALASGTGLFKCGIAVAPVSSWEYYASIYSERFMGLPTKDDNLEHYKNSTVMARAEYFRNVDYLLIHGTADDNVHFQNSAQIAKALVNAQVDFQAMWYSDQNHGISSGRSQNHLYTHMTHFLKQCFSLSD", "assay": "DQ-gelatin cleavage inhibition, active recombinant mouse FAP", "type": "biochemical", "procedure": "To determine the inhibitory ability of NI-206.82C2 against active recombinant murine FAP, recombinant murine FAP was expressed in a HEK293 cell line without the transmembrane and intracellular domains and an N-terminal 6× histidine tag. A 96-well ELISA plate was then coated with 50 uL of murine anti-His tag antibody at 6 μg/mL in PBS overnight at 4° C. The wells were then blocked with 60 μL of 2% BSA in PBS for 1 h at room temperature, and 50 μL of recombinant mouse FAP containing cell culture supernatant diluted 1:4 was added to the well and incubated overnight at 4C while gently shaking. Following three washing steps with PBS, 20 uL of sterile 12.5% BSA/PBS solution was added to all wells."}, "[2]": {"test_system": "arterial occlusion (thrombosis)", "assay": "carotid artery photochemical injury-induced thrombosis model", "type": "in vivo, mouse", "procedure": "The carotid artery photochemical injury-induced thrombosis model begins with anesthesia by intraperitoneal injection of sodium pentobarbital (87 mg/kg body weight). After slight tail warming (using warm water) rose bengal (10 mg/mL in PBS) is injected into the tail vein in a volume of 0.12 mL at a concentration of 50 mg/kg. Mice will then be secured in a supine position (with the head pointing towards the operator) and placed on a heating pad (rectal temperature will be monitored) under a dissecting microscope. Following a (2.5-3 cm) midline cervical incision and a small incision of the larynx to provide a tracheostoma, by blunt preparation the right common carotid artery is exposed and cleared of connective tissue. A surgical stitch is employed to fix the sternocleidomastoid muscle aside to the right and increase access area to the right carotid artery. Care must be taken to avoid excessive vessel manipulation during procedures. Curved-tip tweezers will be employed to slide under the vessel (from the left side) and gently lift it so as to place the probe under and around it. The probe will be placed as proximal as the access area allows it to be and its connection wire should then be placed on a micromanipulator to fine-adjust its position. (The probe should be perfectly aligned with the vessel so as not to cause any resistance to flow). Little surgical ultrasonic gel should be applied on top of the probe to increase signal quality. Within 6 minutes of Rose Bengal injection, a laser beam will be aimed at the carotid artery and kept at fixed distance of 6 cm for 60 minutes. Flow will be measured during these 60 minutes and for further 60 minutes (max time elapse 120 minutes) or until occlusion occurs. Occlusion is considered as a constant (≧1 min) flow below 0.1 ml/min. Mice are euthanized by an overdose of pentobarbital immediately (25 mg) after the occlusion analysis is completed.\nMice will be placed on a heating pad, to avoid a drop of body temperature. Heart rate (probe measuring the blood flow will also measure the heart rate) will be monitored during the surgery. Anethesia depth will be checked before starting the surgery and during the experiment by pedal withdrawal reflex (animals hind limb will be extended and the interdigital webbing of the foot will firmly pinched by the use of an atraumatic forceps; if there is no withdrawal reaction to the toe pinch, animals will be judged deep enough).\nThe chosen dose of anesthesia sodium pentobarbital (87 mg/kg body weight) is sufficient to keep the animal in deep anesthesia for the whole duration of the experiment. No second dosing is necessary. […]"}, "[3]": {"test_system": "MC38 colorectal tumors", "assay": "orthotopic syngeneic MC38 colorectal cancer model, MRI", "type": "in vivo, mouse", "settings": "20 mg/kg i.p. every 72 hours, 5 cycles, versus PBS", "procedure": "[…] mice were anesthetized by isofluorane inhalation, and the hepatic portal vein was accessed by median laparotomy (from xiphoid 4 cm caudally). Mice were injected with 1 million murine MC38 colorectal cancer cells. The origin of these cell is described in Science 19 Sep. 1986. MC-38 tumors were allowed to form for 7 days before treatment. Mice were treated with either PBS or NI-206.82C2 (20 mg/kg by intraperitoneal injection) every 72 hours for 5 treatment cycles, before being anesthetized by isofluourane inhalation. Small animal MRI imaging was performed using a Bruker 4.7 Tesla MRI to aquire images of liver metastases. Tumor images were analyzed on Myrian Software (Intrasense) to quantify tumor metastases and cumulative tumor diameter overall tumor burden."}, "[4]": {"test_system": "4T1 breast tumor", "settings": "mouse, in vivo", "method": "A murine cancer model was generated by the injection of 100′000 4T1 cultured breast tumor cells orthotopically into the 2nd left breast of Balb/c immunocompetent mice and allowed to grow for 7 days. Prior to in vivo imaging, the animals were shaved and de-epilated to remove fur for minimal absorbance and scattering of the incident optical light. In-vivo imaging was performed with the Maestro 500 imaging system (Cambridge Research Inc, Woburn, USA). For A680-82C2 detection, a band pass filter from 615 nm-665 nm and a highpass filter over 700 nm were used for excitation and emission light respectively, and fluorescence was detected by a CCD camera (cooled to 11° C.). A series of images were acquired at different wavelengths and then subjected to spectral unmixing (deconvolution of collected optical spectra; this enabled the unmixing of the Alexa680 fluorescence pattern from tissue auto-fluorescence and other spectral contributions).\nWhole mice images were acquired at the following timepoints: before antibody injection, immediately after antibody injection, 6 h, 24 h, 48 h, and 6 d after antibody injection."}},
  "data": [
    {"molecule": "B1", "values": [
      {"measurement": "potency for inhibiting active recombinant mouse FAP compared to Val-boro-Pro and F19", "setting": "[1]", "result": "higher potency"},
      {"measurement": "occlusion time", "setting": "[2]; 20 mg/kg i.v. versus vehicle control, n=4", "result": "significantly prolonged"},
      {"measurement": "median time to occlusion", "setting": "[2]; 2, 7 and 20 mg/kg versus PBS and 43A11", "result": "dose-dependent increase"},
      {"measurement": "Log-rank hazard ratio of arterial occlusion", "setting": "[2]; versus 43A11 isotype control", "result": 0.04},
      {"measurement": "dose at which significant increase in median time to occlusion starts", "setting": "[2]; versus PBS and 43A11 at 20 mg/kg", "result": 2, "unit": "mg/kg"},
      {"measurement": "cumulative tumor diameter", "setting": "[3]", "result": "reduced"},
      {"measurement": "number of metastases", "setting": "[3]", "result": "reduced"},
      {"measurement": "antibody concentration after 6 d post antibody injection", "setting": "[4]", "result": "declines to almost zero"}
    ]}
  ]
}
